From the supplement of paper PMC10724198
± gives the standard deviation of the averaged measurements.

Experiments:
Saccharomyces cerevisiae [1] = assay: protein stability index of tFT-peptide fusion (C-terminal peptide) (PSI (0-1 scale)); higher = more stable (slower turnover)
Method: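 MPS profiling in S. cerevisiae of the tFT-X12 degron library: putative degron peptides plus stable controls, 12 aa, fused to the C-terminus of a sfGFP-mCherry timer. Cells are FACS-sorted into 8 mCherry/sfGFP bins and deep-sequenced. PSI runs from 0 (unstable) to 1 (stable). Backgrounds are wild type, das1Δ and doa10Δ at 30 °C, and wild type, das1Δ, cdc34-1 and cdc53-1 at 37 °C; 2-3 technical replicates each.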

Saccharomyces cerevisiae [2] = assay: as above; settings: genetic background: wild type; temperature: 30 C
[3] = genetic background: cdc34-1, temperature: 37 C
[4] = genetic background: cdc53-1, temperature: 37 C
[5] = genetic background: das1 deletion, temperature: 30 C
[6] = genetic background: das1 deletion, temperature: 37 C
[7] = genetic background: doa10 deletion, temperature: 30 C
[8] = genetic background: wild type, temperature: 30 C
[9] = genetic background: wild type, temperature: 37 C
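Note: PSI is a weighted mean of sequencing reads over stability bins, variants kept only with over 10 reads, mCherry proximal and sfGFP distal, peptide attached via GGGS linker.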

Sequence	protein stability index (Saccharomyces cerevisiae [1]; [3])	protein stability index (Saccharomyces cerevisiae [1]; [4])	protein stability index (Saccharomyces cerevisiae [1]; [5])	protein stability index (Saccharomyces cerevisiae [1]; [6])	protein stability index (Saccharomyces cerevisiae [1]; [7])	protein stability index (Saccharomyces cerevisiae [1]; [8])	protein stability index (Saccharomyces cerevisiae [1]; [9])	protein stability index (Saccharomyces cerevisiae [2])
VGFYGRWVCVAC	0.366 ± 0.053	0.462 ± 0.024	0.287 ± 0.015	0.435 ± 0.0074	0.236 ± 0.011	0.265 ± 0.019	0.384 ± 0.0068	0.29 ± 0.04
VGGSRGARLGVG	0.352 ± 0.012	0.448 ± 0.014	0.389 ± 0.011	0.426 ± 0.0085	0.3945 ± 0.00071	0.384 ± 0.01	0.42 ± 0.021	0.386 ± 0.014
VGRANLSVIRKV	0.632 ± 0.016	0.733 ± 0.016	0.636 ± 0.014	0.715 ± 0.019	0.243 ± 0.011	0.29 ± 0.024	0.588 ± 0.013	0.436 ± 0.013
VGSSSGRLLYLC	0.595 ± 0.007	0.73 ± 0.0093	0.633 ± 0.0066	0.7466 ± 0.0065	0.2656 ± 0.002	0.302 ± 0.022	0.43 ± 0.0049	0.481 ± 0.0082
VGTIVLTCIEVN	0.0595 ± 0.022	0.0586 ± 0.013	0.191 ± 0.022	0.22 ± 0.0081	0.1519 ± 0.00081	0.187 ± 0.011	0.205 ± 0.0017	0.279 ± 0.017
VGVVLWVWGLGD	0.533 ± 0.026	0.6012 ± 0.0037	0.409 ± 0.033	0.636 ± 0.022	0.423 ± 0.0063	0.426 ± 0.032	0.61 ± 0.03	0.446 ± 0.035
VGVVVVGDVLVW	0.286 ± 0.071	0.375 ± 0.02	0.279 ± 0.03	0.423 ± 0.0065	0.2321 ± 0.0019	0.26 ± 0.025	0.402 ± 0.0091	0.424 ± 0.046
VIQNKKKNKITS	0.599 ± 0.048	0.6883 ± 0.0049	0.642 ± 0.013	0.736 ± 0.0094	0.177 ± 0.021	0.168 ± 0.015	0.284 ± 0.018	0.372 ± 0.027
VIYYVRVGLVLS	0.0324 ± 0.0007	0.115 ± 0.053	0.119 ± 0.03	0.167 ± 0.0084	0.108 ± 0.016	0.117 ± 0.045	0.126 ± 0.016	0.203 ± 0.025
VLARGFHCMYFC	0.68 ± 0.025	0.736 ± 0.022	0.621 ± 0.022	0.75484 ± 0.00037	0.444 ± 0.022	0.447 ± 0.021	0.623 ± 0.02	0.484 ± 0.048
VLGPRFCFVCHA	0.555 ± 0.067	0.604 ± 0.03	0.444 ± 0.039	0.6194 ± 0.0023	0.223 ± 0.0071	0.253 ± 0.033	0.4594 ± 0.003	0.3455 ± 0.0025
VLLSSSLVFLIS	0.597 ± 0.022	0.6439 ± 0.0011	0.522 ± 0.016	0.631 ± 0.018	0.385 ± 0.016	0.416 ± 0.02	0.575 ± 0.0085	0.462 ± 0.044
VLVCYFCRYISH	0.479 ± 0.059	0.579 ± 0.052	0.413 ± 0.046	0.573 ± 0.011	0.365 ± 0.0057	0.398 ± 0.021	0.5316 ± 0.0028	0.485 ± 0.0091
VLVTFFIRSGVS	0.456 ± 0.0087	0.54 ± 0.0081	0.356 ± 0.042	0.536 ± 0.018	0.311 ± 0.01	0.338 ± 0.028	0.49942 ± 1.4e-06	0.411 ± 0.045
VMFCRFPLRFGC	0.662 ± 0.031	0.726 ± 0.03	0.631 ± 0.0071	0.7445 ± 0.0057	0.3191 ± 0.0022	0.348 ± 0.023	0.561 ± 0.021	0.475 ± 0.026
VPTRRRGNRRPA	0.673 ± 0.022	0.7259 ± 0.0048	0.639 ± 0.021	0.725 ± 0.018	0.641 ± 0.011	0.653 ± 0.015	0.706 ± 0.02	0.788 ± 0.03
VQVLVAIMDGRM	0.346 ± 0.023	0.4143 ± 0.0016	0.371 ± 0.031	0.387 ± 0.004	0.38 ± 0.039	0.37 ± 0.019	0.39 ± 0.017	0.354 ± 0.011
VRFLSLNVLFFC	0.54 ± 0.032	0.625 ± 0.022	0.482 ± 0.025	0.628 ± 0.028	0.222 ± 0.0066	0.244 ± 0.029	0.48 ± 0.0046	0.38 ± 0.033
VRGWLAYLRWII	0.58 ± 0.03	0.638 ± 0.026	0.631 ± 0.027	0.724 ± 0.0083	0.195 ± 0.012	0.205 ± 0.018	0.303 ± 0.0047	0.274 ± 0.018
VSFGELGVEVVG	0.709 ± 0.022	0.735 ± 0.041	0.529 ± 0.017	0.736 ± 0.017	0.538 ± 0.014	0.559 ± 0.018	0.7148 ± 0.0022	0.451 ± 0.022

Sequence	protein stability index (Saccharomyces cerevisiae [1]; [3])	protein stability index (Saccharomyces cerevisiae [1]; [4])	protein stability index (Saccharomyces cerevisiae [1]; [5])	protein stability index (Saccharomyces cerevisiae [1]; [6])	protein stability index (Saccharomyces cerevisiae [1]; [7])	protein stability index (Saccharomyces cerevisiae [1]; [8])	protein stability index (Saccharomyces cerevisiae [1]; [9])	protein stability index (Saccharomyces cerevisiae [2])
VSGEWSFLVRVQ	0.548 ± 0.026	0.573 ± 0.0061	0.452 ± 0.025	0.61 ± 0.027	0.392 ± 0.0066	0.411 ± 0.024	0.554 ± 0.012	0.39 ± 0.15
VSISLCVLCPVF	0.268 ± 0.01	0.319 ± 0.016	0.258 ± 0.024	0.356 ± 0.0076	0.2408 ± 0.0018	0.261 ± 0.016	0.312 ± 0.008	0.349 ± 0.018
VSLSWFSCCFVG	0.497 ± 0.066	0.556 ± 0.03	0.439 ± 0.026	0.489 ± 0.023	0.376 ± 0.026	0.377 ± 0.019	0.458 ± 0.01	0.386 ± 0.0073
VSVFSLFLFLRV	0.25 ± 0.047	0.194 ± 0.022	0.357 ± 0.03	0.413 ± 0.045	0.531 ± 0.031	0.35 ± 0.03	0.353 ± 0.049	0.421 ± 0.0044
VSVVLKTQRVVC	0.595 ± 0.026	0.607 ± 0.008	0.432 ± 0.039	0.60289 ± 0.00044	0.3 ± 0.0041	0.346 ± 0.033	0.535 ± 0.01	0.4809 ± 0.0012
VTFWISLVYVLV	0.192 ± 0.015	0.264 ± 0.022	0.18 ± 0.023	0.35 ± 0.0028	0.148 ± 0.0088	0.16 ± 0.017	0.279 ± 0.027	0.218 ± 0.011
VTVWVFVFLRGL	0.319 ± 0.0069	0.393 ± 0.015	0.315 ± 0.029	0.454 ± 0.029	0.294 ± 0.0043	0.302 ± 0.019	0.453 ± 0.0035	0.374 ± 0.052
VVACCVVFWVLP	0.232 ± 0.017	0.469 ± 0.042	0.27 ± 0.028	0.481 ± 0.016	0.231 ± 0.011	0.292 ± 0.022	0.507 ± 0.013	0.437 ± 0.086
VVCLCEYRLHIF	0.203 ± 0.029	0.274 ± 0.031	0.214 ± 0.034	0.399 ± 0.011	0.0658 ± 0.017	0.0733 ± 0.033	0.0928 ± 0.0073	0.0917 ± 0.047
VVFSLLLWLFIS	0.256 ± 0.022	0.405 ± 0.024	0.316 ± 0.047	0.47 ± 0.0075	0.161 ± 0.003	0.168 ± 0.018	0.194 ± 0.0057	0.216 ± 0.029
VVGLSLLFSGGV	0.687 ± 0.011	0.755 ± 0.021	0.644 ± 0.015	0.7583 ± 0.0016	0.662 ± 0.025	0.6572 ± 0.0032	0.727 ± 0.0093	0.694 ± 0.021
VVQCRFPTPCVV	0.486 ± 0.035	0.485 ± 0.033	0.372 ± 0.03	0.5335 ± 0.0022	0.349 ± 0.0096	0.376 ± 0.027	0.496 ± 0.022	0.476 ± 0.013
VVSLGGWCLYIY	0.423 ± 0.061	0.4605 ± 0.0016	0.416 ± 0.032	0.461 ± 0.012	0.385 ± 0.023	0.333 ± 0.019	0.416 ± 0.0093	0.412 ± 0.025
VVVFGWIGYLYL	0.366 ± 0.028	0.499 ± 0.05	0.311 ± 0.044	0.511 ± 0.021	0.282 ± 0.019	0.288 ± 0.044	0.482 ± 0.062	0.327 ± 0.071
VVVHFVLVCSTS	0.0899 ± 0.0074	0.237 ± 0.057	0.141 ± 0.026	0.284 ± 0.0084	0.116 ± 0.011	0.13 ± 0.024	0.271 ± 0.014	0.289 ± 0.038
VWFLLFVVWCGS	0.212 ± 0.01	0.282 ± 0.024	0.217 ± 0.022	0.384 ± 0.0055	0.186 ± 0.021	0.204 ± 0.034	0.316 ± 0.0071	0.309 ± 0.031
VWLAWCIVGGLG	0.472 ± 0.0083	0.5494 ± 0.0026	0.386 ± 0.024	0.5441 ± 0.0026	0.352 ± 0.015	0.369 ± 0.028	0.523 ± 0.0062	0.428 ± 0.03
VWVAWLGGAILA	0.149 ± 0.021	0.188 ± 0.012	0.2 ± 0.029	0.29 ± 0.0052	0.174 ± 0.024	0.194 ± 0.022	0.272 ± 0.0045	0.267 ± 0.021
VYCCVRSLRVAI	0.553 ± 0.0082	0.677 ± 0.047	0.471 ± 0.035	0.6347 ± 0.0019	0.395 ± 0.022	0.428 ± 0.023	0.5746 ± 0.0014	0.496 ± 0.0097
